The source of these data is patent US9157067B2, “Pluripotent cells from mammalian late epiblast layer” (priority 2006, dated 2015).

The test system of one test is rat epiblast layers. Briefly: Derivation of EpiSC lines from rat epiblast layers. The test is classed as cell-based. The text has this:
The hypothesis that Activin and FGF signalling in pluripotency are conserved in mammalian development is supported by the ability of Activin/Nodal signalling to maintain long-term pluripotency of both human ESCs and mouse EpiSCs. As a further test of this hypothesis, we attempted to derive EpiSCs from rats, a species from which embryonic stem cell derivation has been problematic. Following the method we established in the mouse, epiblast layers were dissected from rat embryos at pre-gastrula stages (E 7.5-8.5) and grown on fibronectin-coated or FBS coated plates in CDM supplemented with Activin and FGF. […] Nevertheless, four EpiSC lines were derived out of 14 embryos of the Wistar strain and 1 EpiSC line was derived out of 20 embryos from the Sprague-Dawley strain using CDM supplemented with Activin alone.

In a further test the test system is Rat EpiSCs. Put plainly: Oct-4 immunostaining of rat EpiSCs grown in supplemented CDM. Conditions: after one week in CDM; 5B431542 10 uM; BMP4 10 ng/ml + 5B431542 10 uM; Activin 10 ng/ml + Noggin 100 ng/ml. The format is cell-based. The protocol:
hESCs, mouse ESCs or EpiSCS were fixed for 20 minutes at 4° C. in 4% paraformaldehyde (PFA) and then washed three times in PBS. Cells were incubated for 20 minutes at room temperature in PBS containing 10% goat serum (Serotec) and subsequently incubated over night at 4° C. with primary antibody diluted in 1% goat serum in PBS as follows: SSEA-3 (1:100, Santa Cruz), SSAE-1 (1:25, gift from PW Andrews), Tra-1-60 (1:100, Santa CruZ), Oct-4 (1:100, SantaCruz), Sox2 (1:100, Abeam ab15830), Nanog (1:100, Abeam), Blirnpl (Abeam). Cells were then washed three times in PBS and incubated with fluorescein-Isothiocyanate-conjugated anti-mouse IgG or IgM (Sigma 1:200 in 1% goat serum in PBS) or rat IgM (Jackson laboratory 1:300 in goat serum in PBS) or rabbit IgG (Jackson laboratory 1:200 in donkey serum in PBS) for two hours at room temperature. Unbound secondary antibody was removed by 3 washes in PBS. Hoechst 33258 was added to the first wash (Sigma 1:10000).
Rat EpiSCs were grown in CDM supplemented in the presence of Activin (10 ng/ml), 5B431542 (10 uM), BMP4 10 ng/ml+5B431542 (10 uM) or Activin (10 ng/ml)+Noggin (IOOng/ml). After one week, the expression of the pluripotency marker Oct-4 was analysed using immunostaining. […] Similar results were obtained with mouse EpiSCs.

[1] abbreviates: Rat Sprague-Dawley, 8.5 d.p.c, 37° C., fibro.

B1: Activin: activin agonist growth factor, dimeric polypeptide stimulating the Activin/Nodal pathway (protein, UniProt P08476 311-426, looked up)
Inhibin beta A chain: GLECDGKVNICCKKQFFVSFKDIGWNDWIIAPSGYHANYCEGECPSHIAGTSGSSLSFHSTVINHYRMRGHSPFANLKSCCVPTKLRPMSMLYYDDGQNIIKKDIQNMIVEECGCS
In the test on rat epiblast layers (setting [1]), B1 returned a Lines derived of 1 and a Rate % of 5%. Besides, the Rate % in the test with rat epiblast layers (Rat Water (Wistar), 8.5 d.p.c, 38° C., FCS) worked out at 35%.

B2: Noggin: natural BMP inhibitor (protein, UniProt Q13253 28-232, looked up)
Noggin: QHYLHIRPAPSDNLPLVDLIEHPDPIFDPKEKDLNETLLRSLLGGHYDPGFMATSPPEDRPGGGGGAAGGAEDLAELDQLLRQRPSGAMPSEIKGLEFSEGLAQGKKQRLSKKLRRKLQMWLWSQTFCPVLYAWNDLGSRFWPRYVKVGSCFSKRSCSVPEGMVCKPSKSVHLTVLRWRCQRRGGQRCGWIPIQYPIISECKCSC
Turning to B2, the “expression of the pluripotency marker Oct-4” value in the test with Rat EpiSCs is reported as “did not decrease expression of Oct-4”.

B3: FGF4: growth factor added to rat epiblast cultures (protein, UniProt P08620 31-206, looked up)
Fibroblast growth factor 4: APTAPNGTLEAELERRWESLVALSLARLPVAAQPKEAAVQSGAGDYLLGIKRLRRLYCNVGIGFHLQALPDGRIGGAHADTRDSLLELSPVERGVVSIFGVASRFFVAMSSKGKLYGSPFFTDECTFKEILLPNNYNAYESYKYPGMFIALSKNGKTKKGNRVSPTMKVTHFLPRL
For the molecule B3, the “differentiation of early epiblast cultures” value in the test on rat epiblast layers (addition to CDM supplemented with Activin) is recorded as “induced differentiation”.
